This is an account of results in US20040265863, “Methods and compositions for synthesis of nucleic acid molecules using multiple recognition sites” (Invitrogen Corporation, published 2004).

The target in the series is Vaccinia DNA topoisomerase I (Vaccinia virus, UniProt P68698 P68698:1-314). Description: covalent topoisomerase-DNA complex isolated on SP Sepharose; cleaved linker band seen after proteinase K. The conditions noted are these: tags: Invitrogen; nicked duplex with 3' overhang. How it is done:
The topoisomerase-charged promoter linker was purified using an Akta-FPLC and Unicom software ver. 4.00 (Amersham). 360 μl of the linking reaction was loaded onto a 1 ml HiTrap SP Sepharose HP pre-packed column (Amersham) pre-equilibrated in buffer A (50 mM Tris-HCl pH 7.0), washed at 0.5 ml/min with 11 ml buffer A (collected in 1 ml fractions), and eluted with a 5 ml, 0-100% buffer B (50 mM Tris-HCl pH 7.0, 1M NaCl) gradient followed by 3 ml of 100% buffer B. The eluate was collected in 0.2 ml fractions.

B1: T7 TOPO linker (T7topG/T7botG/TOPO-5) (dsDNA)
DNA 1: GACTCGTAATACGACTCACTATAGGGCCCTTATTCCGATAGTG
DNA 2: AGGGCCCTATAGTGAGTCGTATTACGAGTCAAAAAAAAAAAA
DNA 3: CAACACTATCGGAATA
modifications: 5'-phosphate on each oligo
Take B1: the binding result is reported as “binds”.
